Experimental data from patent EP4613775A1 (Eberhard Karls Universität Tübingen Medizinische Fakultät, dated 2025).

Columns and labels:
[1] = target: T1, phosphoribosylglycinamide formyltransferase, phosphoribosylglycinamide synthetase, … (human, UniProt P22102-2 1-433); assay: custom ELISA
T1 construct: Also the protein of the custom ELISA; also called GART
T1 sequence (looked up): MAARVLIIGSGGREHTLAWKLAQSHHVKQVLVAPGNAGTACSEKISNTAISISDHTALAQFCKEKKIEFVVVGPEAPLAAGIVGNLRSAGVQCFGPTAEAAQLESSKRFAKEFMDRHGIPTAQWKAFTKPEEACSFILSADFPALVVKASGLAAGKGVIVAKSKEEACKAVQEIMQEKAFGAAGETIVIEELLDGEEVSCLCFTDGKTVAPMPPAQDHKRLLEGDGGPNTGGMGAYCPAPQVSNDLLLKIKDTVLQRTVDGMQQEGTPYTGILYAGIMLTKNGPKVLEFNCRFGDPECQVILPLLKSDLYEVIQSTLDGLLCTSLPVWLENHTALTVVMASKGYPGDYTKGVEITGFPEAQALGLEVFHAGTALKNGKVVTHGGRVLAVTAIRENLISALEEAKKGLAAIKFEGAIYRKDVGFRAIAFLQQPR

[2] = target: T2, aldo-keto reductase family 1 member A1 (human, UniProt P14550 1-325); assay: custom ELISA
T2 construct: Also the protein of the custom ELISA; also called AKR1A1
T2 sequence (looked up): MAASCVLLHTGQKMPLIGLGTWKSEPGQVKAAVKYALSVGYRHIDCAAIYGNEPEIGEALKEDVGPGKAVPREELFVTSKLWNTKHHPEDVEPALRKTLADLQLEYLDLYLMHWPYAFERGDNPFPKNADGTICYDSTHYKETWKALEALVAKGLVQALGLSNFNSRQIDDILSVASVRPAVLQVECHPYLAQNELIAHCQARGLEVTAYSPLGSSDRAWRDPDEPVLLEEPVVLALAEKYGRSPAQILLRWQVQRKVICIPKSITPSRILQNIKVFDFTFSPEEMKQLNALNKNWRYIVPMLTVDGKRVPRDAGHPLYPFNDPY

kinesin family member C3 = target: T3, kinesin family member C3 (human, UniProt Q9BVG8-5 1-687); assay: custom ELISA
T3 construct: Also the protein of the custom ELISA; also called KIFC3
T3 sequence (looked up): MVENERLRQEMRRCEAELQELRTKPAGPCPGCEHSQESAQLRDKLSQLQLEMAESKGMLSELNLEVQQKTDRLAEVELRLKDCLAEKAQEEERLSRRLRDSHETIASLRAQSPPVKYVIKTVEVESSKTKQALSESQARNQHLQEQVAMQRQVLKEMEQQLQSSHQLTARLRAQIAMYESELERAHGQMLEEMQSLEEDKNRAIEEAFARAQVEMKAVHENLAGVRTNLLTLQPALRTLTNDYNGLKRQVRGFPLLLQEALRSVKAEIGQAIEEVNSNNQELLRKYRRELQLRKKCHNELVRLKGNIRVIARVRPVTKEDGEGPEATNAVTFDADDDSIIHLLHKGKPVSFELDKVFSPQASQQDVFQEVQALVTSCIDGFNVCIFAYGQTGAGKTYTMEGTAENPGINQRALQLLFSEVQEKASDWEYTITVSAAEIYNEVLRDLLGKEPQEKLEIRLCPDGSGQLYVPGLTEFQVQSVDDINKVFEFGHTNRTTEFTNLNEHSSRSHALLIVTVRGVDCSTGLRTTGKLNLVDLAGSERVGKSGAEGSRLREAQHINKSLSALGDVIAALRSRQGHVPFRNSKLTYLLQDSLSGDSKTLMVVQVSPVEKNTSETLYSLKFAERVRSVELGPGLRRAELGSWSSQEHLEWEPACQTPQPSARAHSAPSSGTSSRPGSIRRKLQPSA

[3] = target: T4, peptidylprolyl isomerase like 1 (human, UniProt Q9Y3C6 1-166); assay: custom ELISA
T4 construct: Also the protein of the custom ELISA; also called PPIL1
T4 sequence (looked up): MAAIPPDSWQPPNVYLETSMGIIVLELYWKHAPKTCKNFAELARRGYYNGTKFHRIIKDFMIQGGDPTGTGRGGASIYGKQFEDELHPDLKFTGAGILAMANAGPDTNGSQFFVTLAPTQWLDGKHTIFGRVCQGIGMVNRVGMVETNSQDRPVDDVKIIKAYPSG

[4] = target: T5, magnesium dependent phosphatase 1 (human, UniProt Q86V88 1-176); assay: custom ELISA
T5 construct: Also the protein of the custom ELISA; also called MDP1

DEAD-box helicase 53 = target: T6, DEAD-box helicase 53 (human, UniProt Q86TM3 1-631); assay: custom ELISA
T6 construct: Also the protein of the custom ELISA; also called DDX53; CAGE

aminoacylase 3 = target: T7, aminoacylase 3 (human, UniProt Q96HD9 1-319); assay: custom ELISA
T7 construct: Also the protein of the custom ELISA; also called ACY3
T7 sequence (looked up): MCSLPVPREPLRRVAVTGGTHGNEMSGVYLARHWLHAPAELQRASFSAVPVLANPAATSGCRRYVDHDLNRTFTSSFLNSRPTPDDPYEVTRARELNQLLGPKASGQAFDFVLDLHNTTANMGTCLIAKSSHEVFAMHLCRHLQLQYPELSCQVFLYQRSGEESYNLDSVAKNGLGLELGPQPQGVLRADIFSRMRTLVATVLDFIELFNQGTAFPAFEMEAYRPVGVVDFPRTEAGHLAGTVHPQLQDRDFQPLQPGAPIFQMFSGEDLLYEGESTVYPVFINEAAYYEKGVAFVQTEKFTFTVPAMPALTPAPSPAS

[5] = target: T8, microtubule associated scaffold protein 2 (human, UniProt Q5JR59-3 1-348); assay: custom ELISA
T8 construct: Also the protein of the custom ELISA; also called MTUS2; microtubule associated tumor suppressor candidate 2
T8 sequence (looked up): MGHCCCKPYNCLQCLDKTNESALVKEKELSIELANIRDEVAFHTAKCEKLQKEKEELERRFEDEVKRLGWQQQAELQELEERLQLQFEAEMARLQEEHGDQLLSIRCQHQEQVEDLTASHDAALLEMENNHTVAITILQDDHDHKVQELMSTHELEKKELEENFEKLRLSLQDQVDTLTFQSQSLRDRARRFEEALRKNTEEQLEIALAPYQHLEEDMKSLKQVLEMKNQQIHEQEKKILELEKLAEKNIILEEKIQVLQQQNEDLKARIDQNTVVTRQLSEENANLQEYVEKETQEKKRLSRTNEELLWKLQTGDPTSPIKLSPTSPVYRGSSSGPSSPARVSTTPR

[6] = target: T9, AKR1A1 peptide MLTVDGKRVPRDAGH (human); assay: peptide microarray epitope mapping (binding stretch)
T9 peptide: MLTVDGKRVPRDAGH

[7] = target: T10, AKR1A1 peptide TVDGKRVPRDAGHPL (human); assay: as above
T10 peptide: TVDGKRVPRDAGHPL

[8] = target: T11, AKR1A1 peptide TLADLQLEYLDLYLM (human); assay: as above
T11 peptide: TLADLQLEYLDLYLM

[9] = target: T12, AKR1A1 peptide VPMLTVDGKRVPRDA (human); assay: as above
T12 peptide: VPMLTVDGKRVPRDA

[10] = target: T13, AKR1A1 peptide WRYIVPMLTVDGKRV (human); assay: as above
T13 peptide: WRYIVPMLTVDGKRV

[11] = target: T14, AKR1A1 peptide LEYLDLYLMHWPYAF (human); assay: as above
T14 peptide: LEYLDLYLMHWPYAF

[12] = target: T15, AKR1A1 peptide YIVPMLTVDGKRVPR (human); assay: as above
T15 peptide: YIVPMLTVDGKRVPR

[13] = target: T16, AKR1A1 peptide RKTLADLQLEYLDLY (human); assay: as above
T16 peptide: RKTLADLQLEYLDLY

[14] = target: T17, AKR1A1 peptide ADLQLEYLDLYLMHW (human); assay: as above
T17 peptide: ADLQLEYLDLYLMHW

[15] = target: T18, AKR1A1 peptide LQLEYLDLYLMHWPY (human); assay: as above
T18 peptide: LQLEYLDLYLMHWPY

[16] = target: T19, DDX53 peptide GLDLNDVTHVYNYDF (human); assay: as above
T19 peptide: GLDLNDVTHVYNYDF

[17] = target: T20, DDX53 peptide SRGLDLNDVTHVYNY (human); assay: as above
T20 peptide: SRGLDLNDVTHVYNY

[18] = target: T21, DDX53 peptide SGEKRLIPKPTCRFK (human); assay: as above
T21 peptide: SGEKRLIPKPTCRFK

[19] = target: T22, DDX53 peptide LKSGEKRLIPKPTCR (human); assay: as above
T22 peptide: LKSGEKRLIPKPTCR

[20] = target: T23, DDX53 peptide KVRIFGNREMKAKAK (human); assay: as above
T23 peptide: KVRIFGNREMKAKAK

[21] = target: T24, DDX53 peptide RIFGNREMKAKAKAA (human); assay: as above
T24 peptide: RIFGNREMKAKAKAA

[22] = target: T25, DDX53 peptide EAKVRIFGNREMKAK (human); assay: as above
T25 peptide: EAKVRIFGNREMKAK

[23] = target: T26, DDX53 peptide HVYNYDFPRNIDVYV (human); assay: as above
T26 peptide: HVYNYDFPRNIDVYV

[24] = target: T27, KIFC3 peptide LGSWSSQEHLEWEPA (human); assay: as above
T27 peptide: LGSWSSQEHLEWEPA

[25] = target: T28, KIFC3 peptide SWSSQEHLEWEPACQ (human); assay: as above
T28 peptide: SWSSQEHLEWEPACQ

[26] = target: T29, KIFC3 peptide AELGSWSSQEHLEWE (human); assay: as above
T29 peptide: AELGSWSSQEHLEWE

[27] = target: T30, KIFC3 peptide EYTITVSAAEIYNEV (human); assay: as above
T30 peptide: EYTITVSAAEIYNEV

[28] = target: T31, KIFC3 peptide DWEYTITVSAAEIYN (human); assay: as above
T31 peptide: DWEYTITVSAAEIYN

[29] = target: T32, KIFC3 peptide ASDWEYTITVSAAEI (human); assay: as above
T32 peptide: ASDWEYTITVSAAEI

T6 sequence (Q86TM3 whole entry): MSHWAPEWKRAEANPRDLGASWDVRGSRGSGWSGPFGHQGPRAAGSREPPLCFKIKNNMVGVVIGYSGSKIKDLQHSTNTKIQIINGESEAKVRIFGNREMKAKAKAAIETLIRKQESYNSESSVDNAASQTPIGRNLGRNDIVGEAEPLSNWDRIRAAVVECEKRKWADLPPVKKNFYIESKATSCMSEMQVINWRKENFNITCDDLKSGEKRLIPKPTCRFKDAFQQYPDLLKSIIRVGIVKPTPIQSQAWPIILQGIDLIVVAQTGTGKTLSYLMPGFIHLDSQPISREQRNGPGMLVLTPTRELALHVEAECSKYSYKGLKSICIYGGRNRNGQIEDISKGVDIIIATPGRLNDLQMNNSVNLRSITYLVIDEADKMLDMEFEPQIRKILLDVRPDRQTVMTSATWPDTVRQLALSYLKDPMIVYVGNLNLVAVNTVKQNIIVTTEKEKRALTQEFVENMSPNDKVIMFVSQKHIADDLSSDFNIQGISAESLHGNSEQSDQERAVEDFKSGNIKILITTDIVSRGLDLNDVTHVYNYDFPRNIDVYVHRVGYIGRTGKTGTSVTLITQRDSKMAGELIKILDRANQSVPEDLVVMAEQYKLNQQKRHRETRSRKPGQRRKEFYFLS
T5 sequence (Q86V88 whole entry): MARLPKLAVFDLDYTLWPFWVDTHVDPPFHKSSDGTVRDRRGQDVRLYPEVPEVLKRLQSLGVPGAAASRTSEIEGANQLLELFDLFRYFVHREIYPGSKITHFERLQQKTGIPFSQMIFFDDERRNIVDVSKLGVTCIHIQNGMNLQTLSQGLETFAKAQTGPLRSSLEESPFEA

B1: recombinant antibody P3-F1 (antibody, V domains shown)
VH: QVQLVESGPTLVKPTQTLTVTCTFSGFSLNTRAVGVGWIRQPPGGALEWLALVYWDDDKRYSPSLKNRLTITKDTSRNQVVLTLTNVAPVDTGTYYCSHHRLTDGRLRWGQGTLVTVSS
VL: QVQLVQSPGTLSLSPGERATLSCRASQSITSSYLAWYQQKFGQAPRLLIYRASNRATGIPDRFSGSGSGTDFTLTISSLESEDFAVYYCQQYDTSPWTFGQGTKVEIK
notes: also called clone P3-F1
binding result [1]: no binding | binding result [2]: binds | binding result (kinesin family member C3): no binding | binding result [3]: no binding | binding result [4]: no binding | binding result (DEAD-box helicase 53): no binding | binding result (aminoacylase 3): no binding | binding result [5]: no binding | binding result [6]: binds | binding result [7]: binds | binding result [8]: binds | binding result [9]: binds | binding result [10]: binds | binding result [11]: binds | binding result [12]: binds | binding result [13]: binds | binding result [14]: binds | binding result [15]: binds

B2: recombinant antibody P1-B4 (antibody, V domains shown)
VH: QVQLVESGPEVKKPGASVKVSCKASGYTFTSYGISWVRQAPGQGLEWMGWISVYKSDTNDAQKFQGRVTMTTDTSTSTAYMELRSLRSDDTAVYYCARSRGIVGSTLDDNWGQGTLVTVSS
VL: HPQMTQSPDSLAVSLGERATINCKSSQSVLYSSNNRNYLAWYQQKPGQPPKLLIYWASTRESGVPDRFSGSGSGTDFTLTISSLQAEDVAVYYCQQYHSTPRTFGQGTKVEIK
notes: also called clone P1-B4
binding result (DEAD-box helicase 53): binds | binding result [16]: binds | binding result [17]: binds | binding result [18]: binds | binding result [19]: binds | binding result [20]: binds | binding result [21]: binds | binding result [22]: binds | binding result [23]: binds

B3: recombinant antibody P1-F6 (antibody, V domains shown)
VH: QVPLKESGPALVKPTRTLTLTCTFSGFSLSTNGVSVGWIRQPPGKALDWLALIYWNDDKRYSPSLKNRLTITKDTSKNLVVLRMTNMDPVDTATYYCAHRPIASSRDGFDYWGQGTLVTVSS
VL: DIQMTQFPSTLSASVGETVTISCRASQSVSGWLAWYQQKPGKAPKLLMYKASALENGVPSRFSGSGSGTEFTLTISSLQPDDFATYYCQQYNGFPFTFGPGTKVDIN
notes: also called clone P1-F6
binding result (aminoacylase 3): binds | binding result [24]: binds | binding result [25]: binds | binding result [26]: binds | binding result [27]: binds | binding result [28]: binds | binding result [29]: binds
